In patent US20050282743A1, “Molecular interactions in cells” (Arbor Vita Corporation, priority 2001, published 2005):
Ends that are not written are not given here. * marks the point of attachment. Biotin = O=C1N[C@H]2[C@H](CS[C@H]2CCCCC(=O)*)N1

What was measured:
Assay in all cases: G' assay (10 uM PL peptide), results of TABLE 7 and TABLE 12
Format in all cases: binding
[1] = biological target: T1, PDZ protein (GST-PDZ fusion) (Homo sapiens, UniProt Q13796); settings: PDZ hAPXL, PDZ Domain 1
T1 construct: made in house; host or cells: E. coli (DH5alpha, BL21 or JM109)
T1 sequence (Q13796 whole entry, the tested form may be a part): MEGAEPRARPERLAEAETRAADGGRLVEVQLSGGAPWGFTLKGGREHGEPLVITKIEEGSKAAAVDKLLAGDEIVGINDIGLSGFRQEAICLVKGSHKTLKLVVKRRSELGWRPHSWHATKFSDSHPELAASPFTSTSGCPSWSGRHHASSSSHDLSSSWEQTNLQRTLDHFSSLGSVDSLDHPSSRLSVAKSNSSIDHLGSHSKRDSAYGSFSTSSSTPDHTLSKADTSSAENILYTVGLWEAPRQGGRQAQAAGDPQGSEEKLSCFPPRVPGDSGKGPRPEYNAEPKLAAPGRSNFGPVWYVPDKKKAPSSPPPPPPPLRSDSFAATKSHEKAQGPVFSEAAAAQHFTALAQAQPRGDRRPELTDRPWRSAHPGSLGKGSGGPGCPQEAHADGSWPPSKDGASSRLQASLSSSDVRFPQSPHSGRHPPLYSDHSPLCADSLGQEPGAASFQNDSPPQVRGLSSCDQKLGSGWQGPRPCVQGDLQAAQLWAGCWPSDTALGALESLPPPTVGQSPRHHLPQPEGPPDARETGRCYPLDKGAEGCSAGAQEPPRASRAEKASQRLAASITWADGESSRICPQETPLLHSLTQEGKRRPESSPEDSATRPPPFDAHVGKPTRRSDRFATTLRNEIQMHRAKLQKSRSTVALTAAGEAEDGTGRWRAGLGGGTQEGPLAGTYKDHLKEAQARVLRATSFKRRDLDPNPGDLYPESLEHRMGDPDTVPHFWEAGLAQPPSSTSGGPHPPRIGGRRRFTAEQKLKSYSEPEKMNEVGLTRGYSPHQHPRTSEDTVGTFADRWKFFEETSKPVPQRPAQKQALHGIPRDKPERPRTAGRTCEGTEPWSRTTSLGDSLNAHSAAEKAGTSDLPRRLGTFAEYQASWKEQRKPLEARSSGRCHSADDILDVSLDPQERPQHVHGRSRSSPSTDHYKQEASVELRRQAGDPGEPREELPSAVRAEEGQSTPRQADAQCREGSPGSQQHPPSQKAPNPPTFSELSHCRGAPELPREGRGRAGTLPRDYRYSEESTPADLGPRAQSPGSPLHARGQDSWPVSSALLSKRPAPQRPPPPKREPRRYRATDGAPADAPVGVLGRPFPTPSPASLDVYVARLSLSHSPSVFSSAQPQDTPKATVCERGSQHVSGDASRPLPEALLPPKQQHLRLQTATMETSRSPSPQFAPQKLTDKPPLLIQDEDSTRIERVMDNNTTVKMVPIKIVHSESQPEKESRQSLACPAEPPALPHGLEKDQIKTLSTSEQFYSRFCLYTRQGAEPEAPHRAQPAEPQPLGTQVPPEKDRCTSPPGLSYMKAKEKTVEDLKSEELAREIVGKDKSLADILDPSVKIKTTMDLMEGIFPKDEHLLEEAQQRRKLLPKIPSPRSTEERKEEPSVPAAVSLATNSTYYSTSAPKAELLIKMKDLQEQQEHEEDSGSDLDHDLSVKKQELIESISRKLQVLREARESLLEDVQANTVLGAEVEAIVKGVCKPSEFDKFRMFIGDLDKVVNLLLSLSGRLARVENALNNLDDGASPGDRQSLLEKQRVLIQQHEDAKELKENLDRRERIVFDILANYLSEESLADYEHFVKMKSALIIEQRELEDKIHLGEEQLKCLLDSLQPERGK
Description: (§1) Each page of TABLE 7 and 12 includes seven columns. The columns in each table are numbered from left to right such that the left-most column in each table is column 1 and the right-most column in each table is column 7. Thus, the first column in each table is labeled “AVC ID”; this column simply lists an internal reference number used to refer to the carboxyl-terminal amino acids of the PL proteins listed in the second column. […] All PL peptides were biotinylated at the amino-terminus and the sequences of these PL peptides are presented in TABLE 8 (see end of specification).
(§2) This column provides the gene name for the PDZ portion of the GST-PDZ fusion that interacts with the PDZ-ligand to the left. For PDZ domain-containing proteins with multiple domains, the domain number is listed to the right of the PDZ (i.e., in column 5 labeled “PDZ Domain”), and indicates the PDZ domain number when numbered from the amino-terminus to the carboxy-terminus.
(§3) The third column labeled “Peptide Optimal Concentration” in the tables is a number reflective of the binding interaction between the PL protein and PDZ protein. […] The column labeled “Protein Optimal Concentration” refers to the protein concentration used to assay PL interaction (in ug/ml); a ‘0’ is indicative of 5 ug/ml protein concentration; any other value represents the concentration (in ug/ml) used to determine the dissociation constant for a given interaction.
(§4) Finally, the seventh column labeled “Classification” is another measure of the level of binding. In particular, it provides an absorbance value at 450 nm which indicates the amount of PL peptide bound to the PDZ protein. The following numerical values have the following meanings: ‘1’—A450 nm 0-1; ‘2’—A450 nm 1-2; ‘3’—A450 nm 2-3; ‘4’—A450 nm 3-4; ‘5’—A450 nm of 4 more than 2× repeated; ‘0’—A450 nm 0, i.e., not found to interact. Thus, higher numbers indicate stronger interactions.
(§5) For convenience, the assay conditions described in this section are referred to as the “G′ assay” and the “G″ assay,” with the specific conditions described in the preceding section on G assays being referred to as the “G^0 assay.” The “G′ assay” is identical to the “G^0 assay” except at step (2) the peptide concentration is 10 uM instead of 20 uM.

[2] = biological target: T2, PDZ protein (GST-PDZ fusion) (Homo sapiens, UniProt Q8TEW0); settings: PDZ PAR3, PDZ Domain 3
T2 construct: made in house; host or cells: E. coli (DH5alpha, BL21 or JM109)
T2 sequence (Q8TEW0 whole entry, the tested form may be a part): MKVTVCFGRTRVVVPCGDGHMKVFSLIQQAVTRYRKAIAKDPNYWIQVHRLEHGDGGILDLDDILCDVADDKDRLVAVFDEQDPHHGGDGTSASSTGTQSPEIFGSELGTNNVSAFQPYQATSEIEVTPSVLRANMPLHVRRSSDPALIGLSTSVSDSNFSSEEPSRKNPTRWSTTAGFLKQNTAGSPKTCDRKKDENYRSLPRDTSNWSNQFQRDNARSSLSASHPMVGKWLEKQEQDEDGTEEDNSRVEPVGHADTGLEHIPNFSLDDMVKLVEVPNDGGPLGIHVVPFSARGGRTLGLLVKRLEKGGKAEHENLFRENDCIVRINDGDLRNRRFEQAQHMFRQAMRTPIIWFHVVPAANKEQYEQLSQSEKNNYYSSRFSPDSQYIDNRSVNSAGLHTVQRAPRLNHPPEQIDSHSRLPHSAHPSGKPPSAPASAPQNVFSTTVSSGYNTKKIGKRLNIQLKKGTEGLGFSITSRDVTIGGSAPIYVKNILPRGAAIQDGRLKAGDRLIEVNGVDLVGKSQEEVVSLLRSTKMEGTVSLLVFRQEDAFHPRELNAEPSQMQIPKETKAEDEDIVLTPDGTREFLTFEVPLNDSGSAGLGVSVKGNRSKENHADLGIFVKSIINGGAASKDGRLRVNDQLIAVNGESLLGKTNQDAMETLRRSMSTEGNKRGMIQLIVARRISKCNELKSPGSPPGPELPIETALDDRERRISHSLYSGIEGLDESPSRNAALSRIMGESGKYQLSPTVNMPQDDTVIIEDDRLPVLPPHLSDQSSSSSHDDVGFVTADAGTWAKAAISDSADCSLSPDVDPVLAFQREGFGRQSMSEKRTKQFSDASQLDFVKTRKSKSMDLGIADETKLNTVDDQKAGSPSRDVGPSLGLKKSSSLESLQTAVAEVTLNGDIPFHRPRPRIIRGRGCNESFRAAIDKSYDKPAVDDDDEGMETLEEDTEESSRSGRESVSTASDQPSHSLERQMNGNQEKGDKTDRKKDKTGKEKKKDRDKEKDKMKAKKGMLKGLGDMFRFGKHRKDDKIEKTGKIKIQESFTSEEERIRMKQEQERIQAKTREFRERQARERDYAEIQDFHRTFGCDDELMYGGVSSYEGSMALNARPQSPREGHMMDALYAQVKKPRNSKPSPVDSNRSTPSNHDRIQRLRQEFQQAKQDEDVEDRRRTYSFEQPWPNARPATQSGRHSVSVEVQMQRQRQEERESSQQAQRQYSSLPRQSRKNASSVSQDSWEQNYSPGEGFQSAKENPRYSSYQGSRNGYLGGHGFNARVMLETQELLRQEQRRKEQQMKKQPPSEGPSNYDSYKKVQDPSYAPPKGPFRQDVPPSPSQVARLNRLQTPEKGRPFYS
Description: as §1, §2, §3, §4, §5

[3] = biological target: T3, PDZ protein (GST-PDZ fusion) (Homo sapiens, UniProt Q12959); settings: PDZ DLG1, PDZ Domain 2
T3 construct: made in house; host or cells: E. coli (DH5alpha, BL21 or JM109)
Description: as §1, §2, §3, §4, §5

[4] = biological target: T4, PDZ protein (GST-PDZ fusion) (Homo sapiens, UniProt Q5TCQ9); settings: PDZ KIAA1634, PDZ Domain 1
T4 construct: made in house; host or cells: E. coli (DH5alpha, BL21 or JM109)
T4 sequence (Q5TCQ9 1-1481): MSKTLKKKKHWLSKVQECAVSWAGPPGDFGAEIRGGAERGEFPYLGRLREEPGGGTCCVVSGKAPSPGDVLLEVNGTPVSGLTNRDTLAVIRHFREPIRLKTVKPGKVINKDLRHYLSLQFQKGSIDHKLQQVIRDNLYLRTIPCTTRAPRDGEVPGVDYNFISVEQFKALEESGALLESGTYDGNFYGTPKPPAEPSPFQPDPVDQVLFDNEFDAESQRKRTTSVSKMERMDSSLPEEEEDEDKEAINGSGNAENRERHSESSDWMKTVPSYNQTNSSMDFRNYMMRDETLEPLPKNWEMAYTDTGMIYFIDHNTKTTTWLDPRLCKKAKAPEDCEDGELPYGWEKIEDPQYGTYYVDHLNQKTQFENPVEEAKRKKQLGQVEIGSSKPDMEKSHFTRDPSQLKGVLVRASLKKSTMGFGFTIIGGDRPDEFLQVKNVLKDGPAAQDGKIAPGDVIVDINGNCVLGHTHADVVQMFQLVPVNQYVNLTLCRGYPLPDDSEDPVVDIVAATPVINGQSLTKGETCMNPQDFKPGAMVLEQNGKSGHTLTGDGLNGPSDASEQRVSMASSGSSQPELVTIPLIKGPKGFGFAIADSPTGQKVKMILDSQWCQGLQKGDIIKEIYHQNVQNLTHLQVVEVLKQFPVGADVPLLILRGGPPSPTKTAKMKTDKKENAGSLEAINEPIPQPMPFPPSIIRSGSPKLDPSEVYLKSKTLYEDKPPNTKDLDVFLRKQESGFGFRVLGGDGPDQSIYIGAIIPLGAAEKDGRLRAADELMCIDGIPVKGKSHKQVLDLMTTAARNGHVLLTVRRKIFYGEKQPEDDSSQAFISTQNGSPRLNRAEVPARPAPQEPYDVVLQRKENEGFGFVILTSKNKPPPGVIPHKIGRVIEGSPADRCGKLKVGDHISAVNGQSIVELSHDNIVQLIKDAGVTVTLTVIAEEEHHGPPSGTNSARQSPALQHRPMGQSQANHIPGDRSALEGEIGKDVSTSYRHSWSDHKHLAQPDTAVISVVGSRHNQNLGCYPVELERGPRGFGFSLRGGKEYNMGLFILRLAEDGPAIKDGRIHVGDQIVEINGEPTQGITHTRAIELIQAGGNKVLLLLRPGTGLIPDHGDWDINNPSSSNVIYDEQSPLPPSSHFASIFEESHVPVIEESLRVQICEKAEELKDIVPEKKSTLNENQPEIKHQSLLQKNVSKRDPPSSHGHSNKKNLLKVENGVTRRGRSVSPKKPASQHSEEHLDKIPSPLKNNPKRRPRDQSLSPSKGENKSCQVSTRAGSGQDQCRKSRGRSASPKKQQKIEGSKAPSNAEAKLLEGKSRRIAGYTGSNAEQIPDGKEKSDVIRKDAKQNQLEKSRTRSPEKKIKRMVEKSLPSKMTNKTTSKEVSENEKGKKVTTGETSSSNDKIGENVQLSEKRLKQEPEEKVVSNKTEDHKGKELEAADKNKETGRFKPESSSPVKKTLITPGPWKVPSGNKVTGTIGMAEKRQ
Description: as §1, §2, §3, §4, §5

[5] = biological target: T5, PDZ protein (GST-PDZ fusion) (Homo sapiens, UniProt Q6P0Q8)
T5 construct: made in house; host or cells: E. coli (DH5alpha, BL21 or JM109)
T5 sequence (Q6P0Q8 whole entry, the tested form may be a part): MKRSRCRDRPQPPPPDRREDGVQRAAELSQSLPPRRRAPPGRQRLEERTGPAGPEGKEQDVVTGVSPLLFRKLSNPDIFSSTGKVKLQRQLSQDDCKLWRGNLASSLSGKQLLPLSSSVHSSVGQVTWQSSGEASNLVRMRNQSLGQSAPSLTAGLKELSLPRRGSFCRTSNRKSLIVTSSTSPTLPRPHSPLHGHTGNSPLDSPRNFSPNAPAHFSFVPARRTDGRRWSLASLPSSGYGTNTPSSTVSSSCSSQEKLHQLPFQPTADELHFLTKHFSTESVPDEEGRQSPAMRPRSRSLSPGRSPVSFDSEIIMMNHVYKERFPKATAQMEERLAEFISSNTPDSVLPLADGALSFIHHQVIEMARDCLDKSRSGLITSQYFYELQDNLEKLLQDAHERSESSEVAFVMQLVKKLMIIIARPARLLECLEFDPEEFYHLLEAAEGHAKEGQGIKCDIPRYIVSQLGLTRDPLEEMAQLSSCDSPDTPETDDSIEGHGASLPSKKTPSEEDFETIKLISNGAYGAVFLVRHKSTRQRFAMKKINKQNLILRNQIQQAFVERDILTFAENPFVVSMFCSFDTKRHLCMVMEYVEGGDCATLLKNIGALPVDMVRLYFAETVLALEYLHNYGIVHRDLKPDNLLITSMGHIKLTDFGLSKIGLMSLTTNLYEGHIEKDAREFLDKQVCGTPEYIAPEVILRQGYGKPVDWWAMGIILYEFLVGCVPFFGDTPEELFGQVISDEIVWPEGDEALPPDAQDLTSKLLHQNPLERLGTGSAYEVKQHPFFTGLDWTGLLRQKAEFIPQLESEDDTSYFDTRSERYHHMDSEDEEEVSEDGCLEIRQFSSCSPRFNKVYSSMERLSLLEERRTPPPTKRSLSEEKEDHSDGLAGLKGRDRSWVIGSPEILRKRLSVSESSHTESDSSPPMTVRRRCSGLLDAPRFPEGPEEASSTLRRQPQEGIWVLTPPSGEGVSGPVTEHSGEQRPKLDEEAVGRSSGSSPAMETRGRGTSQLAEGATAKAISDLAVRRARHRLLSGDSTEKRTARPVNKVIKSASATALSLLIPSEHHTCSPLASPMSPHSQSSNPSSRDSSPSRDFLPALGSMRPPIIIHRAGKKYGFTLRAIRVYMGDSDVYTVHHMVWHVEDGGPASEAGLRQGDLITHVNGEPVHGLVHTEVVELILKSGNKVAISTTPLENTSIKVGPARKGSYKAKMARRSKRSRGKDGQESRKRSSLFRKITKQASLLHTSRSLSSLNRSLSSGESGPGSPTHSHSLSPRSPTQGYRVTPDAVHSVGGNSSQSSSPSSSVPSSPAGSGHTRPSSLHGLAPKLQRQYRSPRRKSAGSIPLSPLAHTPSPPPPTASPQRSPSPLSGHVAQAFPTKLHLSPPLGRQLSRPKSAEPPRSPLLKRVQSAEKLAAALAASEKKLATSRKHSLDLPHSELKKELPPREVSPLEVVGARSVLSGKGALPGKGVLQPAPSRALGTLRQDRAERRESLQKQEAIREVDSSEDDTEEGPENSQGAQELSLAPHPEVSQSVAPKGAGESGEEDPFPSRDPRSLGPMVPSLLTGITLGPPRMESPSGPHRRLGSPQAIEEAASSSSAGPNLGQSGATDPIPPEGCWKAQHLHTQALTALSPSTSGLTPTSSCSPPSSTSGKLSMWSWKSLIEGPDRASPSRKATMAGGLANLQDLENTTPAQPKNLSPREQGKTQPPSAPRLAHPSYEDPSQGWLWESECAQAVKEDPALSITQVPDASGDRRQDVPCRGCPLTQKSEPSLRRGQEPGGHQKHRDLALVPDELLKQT
Description: as §1, §2, §3, §4, §5

[6] = biological target: T6, PDZ protein (GST-PDZ fusion) (Homo sapiens, UniProt Q9Y2H9); settings: PDZ KIAA0973, PDZ Domain 1
T6 construct: made in house; host or cells: E. coli (DH5alpha, BL21 or JM109)
Description: as §1, §2, §3, §4, §5

[7] = biological target: T7, PDZ protein (GST-PDZ fusion) (Homo sapiens, UniProt O15018); settings: PDZ AIPC, PDZ Domain 1
T7 construct: made in house; host or cells: E. coli (DH5alpha, BL21 or JM109)
Description: as §1, §2, §3, §4, §5

[8] = biological target: T8, PDZ protein (GST-PDZ fusion) (Homo sapiens, UniProt Q12923); settings: PDZ PTPL-1, PDZ Domain 4
T8 construct: made in house; host or cells: E. coli (DH5alpha, BL21 or JM109)
Description: as §1, §2, §3, §4, §5

[9] = biological target: T9, PDZ protein (GST-PDZ fusion) (Homo sapiens, UniProt Q9C0E4); settings: PDZ KIAA1719, PDZ Domain 6
T9 construct: made in house; host or cells: E. coli (DH5alpha, BL21 or JM109)
Description: as §1, §2, §3, §4, §5

[10] = biological target: T10, PDZ protein (GST-PDZ fusion) (Homo sapiens, UniProt O75970); settings: PDZ MUPP-1, PDZ Domain 11
T10 construct: made in house; host or cells: E. coli (DH5alpha, BL21 or JM109)
Description: as §1, §2, §3, §4, §5

[11] = biological target: T11, PDZ protein (GST-PDZ fusion) (Homo sapiens, UniProt Q02410); settings: PDZ Mint 1, PDZ Domain 2
T11 construct: made in house; host or cells: E. coli (DH5alpha, BL21 or JM109)
T11 sequence (Q02410 1-837): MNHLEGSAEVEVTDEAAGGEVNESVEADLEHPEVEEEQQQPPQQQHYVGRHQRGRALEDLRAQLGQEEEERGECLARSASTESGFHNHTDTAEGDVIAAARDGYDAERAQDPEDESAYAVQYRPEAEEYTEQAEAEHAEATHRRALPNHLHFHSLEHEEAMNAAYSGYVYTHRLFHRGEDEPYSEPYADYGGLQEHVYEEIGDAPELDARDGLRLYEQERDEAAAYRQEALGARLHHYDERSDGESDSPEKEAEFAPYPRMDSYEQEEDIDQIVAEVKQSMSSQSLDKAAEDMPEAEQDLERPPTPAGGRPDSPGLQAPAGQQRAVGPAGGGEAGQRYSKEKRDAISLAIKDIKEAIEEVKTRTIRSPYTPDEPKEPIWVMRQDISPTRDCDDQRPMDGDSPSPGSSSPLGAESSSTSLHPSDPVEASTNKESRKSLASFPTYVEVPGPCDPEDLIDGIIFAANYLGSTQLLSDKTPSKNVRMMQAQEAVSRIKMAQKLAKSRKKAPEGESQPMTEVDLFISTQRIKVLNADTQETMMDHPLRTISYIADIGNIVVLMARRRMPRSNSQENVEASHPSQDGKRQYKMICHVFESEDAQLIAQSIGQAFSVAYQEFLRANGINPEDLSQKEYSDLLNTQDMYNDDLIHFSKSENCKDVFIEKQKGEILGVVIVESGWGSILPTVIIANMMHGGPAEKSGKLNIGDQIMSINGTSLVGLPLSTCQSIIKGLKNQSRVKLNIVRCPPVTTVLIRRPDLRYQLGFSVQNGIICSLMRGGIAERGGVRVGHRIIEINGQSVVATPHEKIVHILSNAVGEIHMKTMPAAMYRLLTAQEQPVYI
Description: as §1, §2, §3, §4, §5

[12] = biological target: T12, PDZ protein (GST-PDZ fusion) (Homo sapiens, UniProt Q9NZN5); settings: PDZ KIAA0382, PDZ Domain 1
T12 construct: made in house; host or cells: E. coli (DH5alpha, BL21 or JM109)
Description: as §1, §2, §3, §4, §5

Row | Classification [2] | Classification [9] | Substance | Classification [1] | Classification ([5]; PDZ KIAA0807(S), PDZ Domain 1) | also measured
1 | 1 (A450 nm 0-1) |  | PTR2_HUMAN (Biotin-RPMESNPDTEGAQGETEDVL) | 1 (A450 nm 0-1) |  | 
2 | 2 (A450 nm 1-2) | 1 (A450 nm 0-1) | QGDPALQDAGDSSRKEYFI (Biotin-QGDPALQDAGDSSRKEYFI) [Glycophorin C] |  |  | 
3 |  | 1 (A450 nm 0-1) | RIAYSLLGLKDQVNTVGIPI (Biotin-RIAYSLLGLKDQVNTVGIPI) [ephrin A2] |  |  | Classification [10]: 1 (A450 nm 0-1); Classification [11]: 1 (A450 nm 0-1); Classification [12]: 1 (A450 nm 0-1)

The remaining lines, values behind:

Row | Substance | Classification [2] | Classification [9] | Classification [1] | Classification ([5]; PDZ KIAA0807(S), PDZ Domain 1) | also measured
4 | VDPNSPAAKKKYVSYNNLVI [GLUR7 (metabotropic glutamate receptor)] | 2 (A450 nm 1-2) |  |  |  | Classification [3]: 1 (A450 nm 0-1); Classification [4]: 1 (A450 nm 0-1)
5 | NSYVRDDAIFIKAIVDLTGL (Biotin-NSYVRDDAIFIKAIVDLTGL) [TRAF2] |  |  |  | 4 (A450 nm 3-4) | Classification ([5]; PDZ KIAA807): 2 (A450 nm 1-2); Classification [6]: 1 (A450 nm 0-1)
6 | LLNVLQRQELGDGLDDEIAV (Biotin-LLNVLQRQELGDGLDDEIAV) | 1 (A450 nm 0-1) |  | 1 (A450 nm 0-1) | 1 (A450 nm 0-1) | Classification [7]: 1 (A450 nm 0-1); Classification [8]: 1 (A450 nm 0-1); Classification ([5]; PDZ KIAA807, PDZ Domain not given): 1 (A450 nm 0-1)
